Test results published in patent US20230159643A1 (H LUNDBECK A S, published 2023).

T1: Sortilin SORTECD_HIS (human, UniProt Q99523 78-755)
T1 construct: also called Sortilin-ECD-His; HIS-tagged Sortilin ECD
T1 sequence: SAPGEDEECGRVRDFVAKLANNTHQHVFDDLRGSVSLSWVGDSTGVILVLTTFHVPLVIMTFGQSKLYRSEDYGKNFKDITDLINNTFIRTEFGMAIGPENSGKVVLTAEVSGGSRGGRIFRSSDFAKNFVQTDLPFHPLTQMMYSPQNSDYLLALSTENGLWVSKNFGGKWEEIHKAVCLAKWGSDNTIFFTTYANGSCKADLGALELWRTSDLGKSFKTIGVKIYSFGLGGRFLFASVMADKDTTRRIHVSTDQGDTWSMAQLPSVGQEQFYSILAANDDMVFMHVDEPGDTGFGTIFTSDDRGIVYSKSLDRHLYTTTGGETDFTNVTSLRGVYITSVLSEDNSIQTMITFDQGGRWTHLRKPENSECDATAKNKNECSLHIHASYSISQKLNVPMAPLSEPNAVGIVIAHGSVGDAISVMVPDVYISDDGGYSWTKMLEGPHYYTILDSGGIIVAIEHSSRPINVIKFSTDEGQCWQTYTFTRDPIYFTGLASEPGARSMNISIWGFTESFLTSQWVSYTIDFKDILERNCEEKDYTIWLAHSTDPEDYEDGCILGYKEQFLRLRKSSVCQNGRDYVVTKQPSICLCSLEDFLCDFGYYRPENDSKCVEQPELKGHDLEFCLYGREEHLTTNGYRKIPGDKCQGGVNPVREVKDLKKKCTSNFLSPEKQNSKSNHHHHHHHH

T2: Sortilin hSORTECDBAP (human, UniProt Q99523 78-755, biotinylated on the BAP tag by co-expression of biotin ligase)
T2 construct: Soluble extracellular region (ECD, aa 1-755) with BAP tag
T2 sequence: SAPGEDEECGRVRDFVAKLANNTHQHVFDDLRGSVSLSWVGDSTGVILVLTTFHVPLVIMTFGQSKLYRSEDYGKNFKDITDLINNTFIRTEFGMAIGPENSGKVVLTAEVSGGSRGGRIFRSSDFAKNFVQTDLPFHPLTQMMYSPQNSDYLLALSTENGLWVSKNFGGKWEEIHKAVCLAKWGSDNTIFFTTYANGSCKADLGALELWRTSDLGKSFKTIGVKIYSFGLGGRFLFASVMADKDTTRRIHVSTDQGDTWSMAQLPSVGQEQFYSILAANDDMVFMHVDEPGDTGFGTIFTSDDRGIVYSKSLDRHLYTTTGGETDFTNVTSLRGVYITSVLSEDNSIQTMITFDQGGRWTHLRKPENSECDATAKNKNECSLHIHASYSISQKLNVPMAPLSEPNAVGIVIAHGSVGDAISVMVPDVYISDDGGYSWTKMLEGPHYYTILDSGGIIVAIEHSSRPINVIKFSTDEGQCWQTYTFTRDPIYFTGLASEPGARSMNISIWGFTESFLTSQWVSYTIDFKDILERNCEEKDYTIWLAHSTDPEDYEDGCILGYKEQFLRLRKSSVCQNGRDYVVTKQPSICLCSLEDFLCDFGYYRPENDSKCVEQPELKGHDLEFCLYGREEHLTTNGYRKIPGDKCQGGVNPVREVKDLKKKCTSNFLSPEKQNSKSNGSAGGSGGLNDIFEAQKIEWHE

T3: Sortilin SORTECDBAP_hB12390 (human/tetraodon chimera)
T3 construct: Shuffle construct
T3 chain: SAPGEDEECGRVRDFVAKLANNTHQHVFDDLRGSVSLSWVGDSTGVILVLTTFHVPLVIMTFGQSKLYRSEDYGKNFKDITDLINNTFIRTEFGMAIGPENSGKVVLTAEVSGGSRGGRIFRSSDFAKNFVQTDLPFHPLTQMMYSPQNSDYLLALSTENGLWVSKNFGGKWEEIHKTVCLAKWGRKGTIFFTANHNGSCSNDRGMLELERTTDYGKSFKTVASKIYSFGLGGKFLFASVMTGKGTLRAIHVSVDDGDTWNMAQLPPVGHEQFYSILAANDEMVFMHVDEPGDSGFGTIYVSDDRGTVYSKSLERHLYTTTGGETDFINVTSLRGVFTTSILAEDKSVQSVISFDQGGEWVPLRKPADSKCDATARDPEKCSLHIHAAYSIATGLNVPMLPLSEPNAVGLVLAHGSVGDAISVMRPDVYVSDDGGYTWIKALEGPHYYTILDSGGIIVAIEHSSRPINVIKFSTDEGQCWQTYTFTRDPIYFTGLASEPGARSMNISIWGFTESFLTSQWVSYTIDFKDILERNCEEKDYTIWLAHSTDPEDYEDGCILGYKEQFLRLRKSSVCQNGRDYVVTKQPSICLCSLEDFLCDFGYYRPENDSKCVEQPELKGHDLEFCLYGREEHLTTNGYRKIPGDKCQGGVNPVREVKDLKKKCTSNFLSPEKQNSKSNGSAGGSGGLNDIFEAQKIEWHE


Tests used:
Sortilin SORTECD_HIS = biological target: T1, Sortilin SORTECD_HIS; experiment: HTRF: displacement of PGRN binding to His-tagged Sortilin ECD
Description: Dose-response evaluation of antibodies was performed with ten concentrations covering 50 pM to 1 μM in a 3-fold dilution curve. The half-maximal inhibitory concentration (IC50) values were calculated by non-linear regression using sigmoidal concentration response (variable slope) in XLfit 4 (IDBS, UK).
Experiments were performed in assay buffer (50 mM Phosphate, pH 7.0, 0.1% BSA) in a total volume of 20 μl in a Greiner 384 well, white, low volume microtiter plate, (784075, Greiner).

Sortilin hSORTECDBAP = biological target: T2, Sortilin hSORTECDBAP; experiment: BLI Octet 384RED, antibody on Protein A sensor, Sortilin construct in solution
Description: (§1) Binding kinetics of anti-Sortilin HuMab antibodies to Sortilin were determined using Octet 384RED (Fortebio, Menlo Park, USA). HuMab solutions of 2 μg/ml were made by dilution in sample diluent (ForteBio, art. No. 18-5028). Prot A sensors (ForteBio, art. no. 18-0004) were prewetted with kinetics buffer (1:10 sample diluent in PBS) for at least 600 seconds. Subsequently sensors were immobilized with HuMab solution for 600 seconds. A baseline response was obtained by dipping in kinetics buffer for 120 seconds. Association of SORTECD constructs was performed during a 1000 seconds incubation. This was followed by dissociation in kinetics buffer for 100 seconds. After dissociation, sensors were regenerated (10 mM Glycine pH 1.0) and neutralized (kinetics buffer) 3 times for 5 seconds. […] A molecular weight of 76.8 kDA was used for SORTECDHis. Data was fitted with ForteBio Analysis 6.4 software, using a global full fit.

[1] = biological target: T3, Sortilin SORTECDBAP_hB12390; experiment: BLI Octet 384RED (Example 8), Sortilin construct in solution
Description: as §1

Binder	IC50 (Sortilin SORTECD_HIS) [nM]	EC50 (Sortilin hSORTECDBAP) [ng/mL]	EC50 [1] [ng/mL]
1320 (antibody, V domains shown, also called IgG1-6003-1320; Antibody 1320) VH: not shown VL: EIVLTQSPATLSLSPGERATLSCRASQSVSSYLAWYQQRPGQAPRLLIYDASNRATGIPARFSGSGSGTDFTLSISSLEPEDFAVYYCQQRTNWSITFGQGTRLEIK	32	19.1	
Antibody 1F2 (antibody, V domains shown, Mouse anti-human Sortilin monoclonal antibody from hybridoma (BALB/c), purified on protein G; Assigned to the D Region; also called 1F2F4; Ab 1F2) VH: EVQLVESGGDLVKPGGSLKLSCAASGFTFSSYGMSWVRQTPDKRLEWVAIISSGGSYTHYPDSVKGRFTISRDNAKNTLYLQMSSLKSEDTAMYYCARLCGPLCSGYWGQGTSVTVSS VL: QAVVTQESALTTSPGETVTLTCRSSTGAVTTSNYANWVQEKPDHLFTGLIGGTNNRAPGVPARFSGSLIGDKAALTITGAQTEDEAIYFCALWYSNHFWVFGGGTKLTVLG			1.1
Antibody 5E1 (antibody, V domains shown, Mouse anti-human Sortilin monoclonal antibody from hybridoma (BALB/c), purified on protein G; Assigned to the D Region; also called 5E1F6; Ab 5E1) VH: EVHLVESGGDLVNPGGSLKLSCEASGFIFSIYGMSWVRQTPDKRLEWVAMISSGGIYTQYPDSVKGRFTISRDNAKNTLYLQMSGLKSEDTGTYHCTRHDDSWFAYWGQGTLVTVSA VL: not shown			0.59
